Reference: patent US20090054327A1

Columns and labels:
[1] = target: actin filaments; experiment: F-actin high-speed co-sedimentation, direct comparison with dystrophin
[2] = target: actin filaments; experiment: F-actin high-speed co-sedimentation

| extent of lateral association with actin filaments (stoichiometry) (actin monomers per utrophin molecule) [1] | Bmax (actin monomers per dystrophin molecule) [2] | Kd [2] [nM] | Substance |
| --- | --- | --- | --- |
| 14 | – | – | full-length recombinant utrophin (from UniProt G3V7L1 1-3418) |
| – | 24 | 400 | recombinant full-length mouse dystrophin (from UniProt P11531 1-3678) |
